Measurements from a protein production outcome set (Wang et al. 2014).

Test: label from the status in PepcDB records

| Sequence | protein production |
| --- | --- |
| MTVTAPNALNFECETGNYHTFCPISCVAWLYQKIEDSFFLVIGTKTCGYFLQNAMGVMIFAEPRYAMAELEEGDISAQLNDYEELKRLCLEIKRDRNPSVIVWIGTCTTEIIKMDLEGLAPKLEAEIGIPIVVARANGLDYAFTQGEDTVLAAMAARCPTSTAISDPEERNPIQRLLNFGKKKEEVQAQSSQYHPHPPLVLFGSLPDPVVTQLTLELKKQGIKVSGWLPAKRYTELPVIDEGYYVAGVNPFLSRTATTLIRRRKCQLITAPFPIGPDGTRTWIEQICATFGIQPQGLAEREAETWQKLSDYLELVRGKSVFFMGDNLLEISLARFLIRCGMRVLEIGIPYMDKRYQAAELALLSQTCAEMGHPLPTIVEKPDNYNQLQRIKALQPDLVITGMAHANPLEARGISTKWSVEFTFAQIHGFGNARDILELVTRPLRRNQALAGLGWQKLVAHLEHHHHHH | failed |
| MTFLDKIKQGCLDGWAKYKILPSLTAAQTILESGWGKHAPHNALFGIKADSSWTGKSFDTKTQEEYQAGVVTDIVDRFRAYDSWTDSIIDHGKFLNDNPRYQAVIGETDYKKACHAIKDAGYATASGYAELLIQLIEENDLQEWDEEAIVRKEKQMISSQCREVIEFFINLVNAGVGVDKDGFAGWQCTDVPCYAAKHWFGVDLWGNAIDLLDSAAAVGWEVHRMPTDANPQTGAFFVQSVPYHQFGHTGVVIEDSDGYTMRTIEQNIDGNPDALYVGAPARFNTRDFTGVTGWFYPPYQGDIVTQPVSTEPQTSDTIVETAKTGTFTLDVAEINIRRWPSLTSEVVGSYKQGDTISFDSEGYANGYYWISYVGGSGMRNYTAIGITDKDGNIISLWGKLNLEHHHHHH | not failed |
| MENLALTTLLLPFIGALVVSFSPQRRAAEWGVLFAALTTLCMLSLISAFYQADKVAVTLTLVNVGDVALFGLVIDRVSTLILFVVVFLGLLVTIYSTGYLTDKNREHPHNGTNRYYAFLLVFIGAMAGLVLSSTLLGQLLFFEITGGCSWALISYYQSDKAQRSALKALLITHIGSLGLYLAAATLFLQTGTFALSAMSELHGDARYLVYGGILFAAWGKSAQLPMQAWLPDAMEAPTPISAYLHAASMVKVGVYIFARAIIDGGNIPHVIGGVGMVMALVTILYGFLMYLPQQDMKRLLAWSTITQLGWMFFGLSLSIFGSRLALEGSIAYIVNHAFAKSLFFLVAGALSYSCGTRLLPRLRGVLHTLPLPGVGFCVAALAITGVPPFNGFFSKFPLFAAGFALSVEYWILLPAMILLMIESVASFAWFIRWFGRVVPGKPSEAVADAAPLPGSMRLVLIVLIVMSLISSVIAATWLQ | failed |
| EGLDYLTAPNPPSIREELCTASHDTITVHWISDDEFSISSYELQYTIFTGQANFISLYNSVDSWMIVPNIKQNHYTVHGLQSGTRYIFIVKAINQAGSRNSEPTRLKTNSQPFK | not failed |
| PHSMEPQVTLNVTFKNEIQSFLVSDPENTTWADIEAMVKVSFDLNTIQIKYLDEENEEVSINSQGEYEEALKMAVKQGNQLQMQVHEG | not failed |
| MPKHEFSVDMTCGGCAEAVSRVLNKLGGVKYDIDLPNKKVCIESEHSMDTLLATLKKTGKTVSYLGLE | not failed |
| MAVSKMEKMTIIAAAEKEAAILQAIQGLQIVEVKRIFHSPEEEQALKSQYSFLQAEQSTEQLRKYETMLQQLQELLLFLTRSSGKGLKIKRKVYTLEELEQTFDEETLQSYLTELKNIQESLKQIQTDRQGLEAEEELLGRWQYLDVLPHKQQLKSSYVVHGSINLANKASFLSALSQWPTVYFEEIYQSMHHSYFTLVYLKEHQQSVTELLNQYSFEPLQYRYDVPPKEAYQQVKERYEILQKEEKALKQQLASYHDFYETFCLAEEVLLAVIQREQARQHLLNASSFFILQTWIPVEEKAEILTAIEEKVPKDEIALTFENPTKAEIETDIPVKLANNKLVQPFEMLTEMYSLPKYEEVDPTPAMMPFYLVFFGMMVADIGYGLLMLLLSIIALKAFVLPRGMKRFADFFLILSFPTIIWGFIYGSFFGAALPPIMFGIKSPFPILSTTEDVNTILILSVIFGFIQLVVGLMINGIQLSKQKRYLDSINESYAWLGILFGLALLVVGKLVVKNEGLFTAGAILASLSAIAIIVIPMIQSKAKLKGLAKGLYGLYGVTGYVGDLVSYTRLMALGIAGGSIASAFNMLVEFMPPVARFSVGILLLIVLHALNIFLSLLGAYVHGARLQYVEFFGKFYTGGGRAFNPLKTKEKYVNVEKK | failed |
| MLITVYCVRRDLSEVTFSLQVSPDFELRNFKVLCEAESRVPVEEIQIIHMERLLIEDHCSLGSYGLKDGDIVVLLQKDNVGPRAPGRAPNQPRVD | failed |
| MGSASIGYQFGISARFYGNFNLSSDITVSSLPCKLDVSIKSLFSAPSSTHKEYSNRARVCSLPNTDGYCDEKFETPILDSIETPLQLKNLSVKELKLLADEIRTELHSVLWKKTQKSMNPSFAAIELTLALHYVFRAPVDNILWDAVEQTYAHKVLTRRWSAIPSRQNSGISGVTSRLESEYDSFGTGHGCNSISAGLGLAVARDMKGKRDRVVAVIDNVTITAGQAYEAMSNAGYLDSNMIVILNDSRHSLHPNMEEGSKASISALSSIMSKIQSSKVFRKFRELAKAMTKRIGKGMYEWAAKVDEYARGMVGPTGSTLFEELGLYYIGPVDGHNIEDLVCVLREVSSLDSMGPVLVHVITEGNRDAETVKNIMVKDRRTYSDCFVEALVMEAEKDRDIVVVHAGMEMDPSLLTFQERFPDRFFNVGMAEQHAVTFSAGLSSGGLKPFCIIPSAFLQRAYDQVVHDVDRQRKAVRFVITSAGLVGSDGPVQCGAFDIAFMSSLPNMIAMAPADEDELVNMVATAAYVTDRPVCFRFPRGSIVNMNYLVPTGLPIEIGRGRVLVEGQDVALLGYGAMVQNCLHAHSLLSKLGLNVTVADARFCKPLDIKLVRDLCQNHKFLITVEEGCVGGFGSHVAQFIALDGQLDGNIKWRPIVLPDGYIEEASPREQLALAGLTGHHIAATALSLLGRTREALLLMS | failed |
| SLMDVKCETPNCPFFMSVNTQPLCHECSERRQKNQN | not failed |
| EVPIGFDTDELSFDMSLVLLTGDMQTKASDPNYTYATTEELTIQNCHVAVFDKDGKRIYFKNFYSKDLGEMKTIGNLSGYELQLEGVRTFGKEDKKVSVLVVANANNANNSPFDNLTTYDGVDNSYTAKTIAKGPVTASLLVKIGKSETTLKYNQDNAPVTVSLIQLSAKIEYTGVYKKENGELLEGFSLTKVAGLNASSKITIFNTSAVENGAFSDLAYPTTKPVTFYTYEISDAFKEVILSVQSGVEPKEYPFPANKFIKGNYYRIKGLKSSTEIEWVLENVEDKEVTLDPFE | not failed |
| TLGKETKTTVHKFGLEPPSELIQKQLRANLDDDIWEVIRSRKIDGEHVILDKDYFFRKHVPHLTKEICENSIYEYIEGELGLSISYAQKEIVAEPCTDEDRELLDLRGYDHMVVVRNYVFLEDTSLFQYTESRHRLDKFRFVDFARRGK | not failed |
| MHERTGLWRGITAVGALLLAVAIMAGTIMETYRTSLDAFVGTRSQRTVTDQSADNGDSWTYKSEYKTAKEAYEGFKKTAMDEAQETYVLLKNSDNALPLSKSAKITMFGVRSYAPVYGSSGGSVTDGNSTVEITKAFEEEGFQINPSMLKAYQNYFKDKKWTTPQFGGGILPEYEDITKYNDPCELSLDELAKLNPEYKSQYGEYQDAAIVVVGRPAGENGDGYYPGQDGLADGVNTVTGNILSLSDEEMALVNEAKANFSKVIVLVNSTNPMEIANLQDDPDIDAIMWIGYPGAYGFYGVADVLNGTVSPSAHLGDVMAKNSAVAPAMSNYGNVAWKNASDFSEDAAVNSYLMEAEGIYTGYRYYETRYADIVMGNGGDTASAGTYAASDGTVATADGTWDYANEVVYPFGYGLSYTTFEQKLDGVEIKGDKKTAVATVTVKNTGSVEGKSVIQLYASVPYTDYDKKNGVGKSAIQLMDFEKTNALKPGDSQTITMTVDLSNLASYDSNKAKTYIVDPGDYYFSIGDDVHDALNNVLAAQGYSESDGMTAAGDKTKTYTWSWDGGVDADTFATSSTGTKITNQLSDGKYATDYNAFDKGAVTYLTRSDWNGTFPKTYSGISANEEVSKLLNNDFIDLKSDGDVSDITIGDTSSSLTLNDMKGASYDDERWDELTSKVSVKEFMHFAETAFHAIGAIDSVGLQEMTTDDGPGGSDSHYLNEGQYQGKAYADADDYADKSSRVAPSPTNLAYSWNKELAYRNGEVILGESSLVFRLPIMIAPAMNLHRHAYNSRGVEYYSEDPILSGYIGSAVVQGAQSKGVLVNVKHLAFNDQEINRSGIATFMSEQKAREMELRNFQQAFEANGKPASFESDDAKKNTYTQGALGVMTSYNRIGAVASSANAAVMVNILRDEWGFTGYNVTDFTSVSPHAAPKESVLAGTSAFCGFGNQGVKYWDAATLSKDRDMLLAIKQNMHYSLWAIANSNAMNGVNSSTHTENVMTWWRAVYLGVIAASGVVTLIGLAGYTTTRIRPARNADNGPTAASK | failed |
| MMKNKKVEANLSMVVSKTFSGLNMNALKYLLPVWVSPLSGVTLRCVFAAIAFWIIGMFVKPEISTRKEKIFLFLLGALGIYGFMFLYLMGLSKTTPVSSSIFTSLQPIWVFVIAVVFFKEKISAMKIAGISLGLGGAILCILAQKSDDLASDALTGNMLCLLSSIAYAVYLVASNRILKSVGMFTVLKYTFAGAAFSSIVVSAVTGFHAPVFSGPLHWFPLSVLLFVLIFPTVVSYLLVPIGLKYLKTTVVAIYGYLILIVATIVSLLVGQDRFSWSQTIAIGMICVSVYLVEVAETKEKPVSNSDKPSSLPPHGS | failed |
| MPFTLHLRSRLPSAIRSLILQKKPNIRNTSSMAGELRPASLVVLPRSLAPAFERFCQVNTGPLPLLGQSEPEKRMLPPQGAISETRMGHPQFWKYEFGACTGSLASLEQYSEQLKDMVAFFLGCSFSLEEALEKAGLPRRDPAGHSQAGAYKTTVPCVTHAGFCCPLVVTMRPIPKDKLEGLVRACCSLGGEQGQPVHMGDPELLGIKELSKPAYGDAMVCPPGEVPVFWPSPLTSLGAVSSCETPLAFASIPGCTVMTDLKDAKAPPGCLTPERIPEVHHISQDPLHYSIASVSASQKIRELESMIGIDPGNRGIGHLLCKDELLKASLSLSHARSVLITTGFPTHFNHEPPEETDGPPGAVALVAFLQALEKEVAIIVDQRAWNLHQKIVEDAVEQGVLKTQIPILTYQGGSVEAAQAFLCKNGDPQTPRFDHLVAIERAGRAADGNYYNARKMNIKHLVDPIDDLFLAAKKIPGISSTGVGDGGNELGMGKVKEAVRRHIRHGDVIACDVEADFAVIAGVSNWGGYALACALYILYSCAVHSQYLRKAVGPSRAPGDQAWTQALPSVIKEEKMLGILVQHKVRSGVSGIVGMEVDGLPFHNTHAEMIQKLVDVTTAQV | failed |
| GGERRELKSLEQVHFAMAFEAPNYRAPDVYAAQVYAMALGGGMSSRLFQKVREERGLCYSIFAQSGAYEDTGQITIYAGTSGEEVADLAGLTVDELKRATEDMSEAEVARARAQLKAGLLMGLESPSNRAERLARLLAIWGRVPGVDEAVEKIDAVTVGAVRDYAERMAQARSALALYGPAEAAPALAQIRERLAA | failed |
| MIMRKFASRVKDIQLSEIRKIFEVADEDTINLGIGEPDFSVPDHVREAVKDAVDEGLTHYTSNMGMEELREAIADKLKSENRVHAEPESIIVTVGASEAIFMCTQALLDIGDHALIPDPGFLSYDACVRLSGAVSIPVPLSMDEGFSMSPERVESLITQDTRVIIMNSPSNPTGSVMGKDDVKGIAEIAEDNDLIIISDEIYEKIIYDGKHYSPAQFTDNALIVNGFSKTYAMTGLRIGYVAGCEDIIEELLKVHQYNTACAPSISQYAALAAIRGPQNCVKDMVDEFRRRRDLMFRSLTDMGLECVLPGGAFYMFPYAGDSEEFTKLSLEAGVAVVPGSAFGNEGKGYIRMSYATSYELIEEAMERLKTVCGV | failed |
| DRVTLEVGKVIQQGRQSKGLTQKDLATKINEKPQVIADYESGRAIPNNQVLGKIERAIGLKLRGKDIGKPIEKGPRAK | not failed |
| MLRVLSVGVAFILLGCQFFNKTTLHLKYKDYPKNSALKTAFTLTPPKIFFNARFVPPFYQKEFKKAITQQIAYFLKDKSAFILNVSGNVFFSFEENPKDLKAIKERLKKTIEPNADPKAVMRFLNLQASLILECVPQTTCPFDTLLIPTAFSVPVYYANRLGDNPSLFSQEDKTYHNALIKALNKAYYSLMEGLEKRLNAIKNAEWL | failed |
